Values joined by “and” are separate entries in the source; they are usually repeats but may differ in a detail not shown here. Equal entries are not always repeated.

Results on 5 variants are retold here after FireProtDB (doi:10.1016/j.jmb.2009.04.068).

The chains are these.
B1: Neurotensin receptor type 1, P20789 (parent)
chain: MHLNSSVPQGTPGEPDAQPFSGPQSEMEATFLALSLSNGSGNTSESDTAGPNSDLDVNTDIYSKVLVTAIYLALFVVGTVGNSVTAFTLARKKSLQSLQSTVHYHLGSLALSDLLILLLAMPVELYNFIWVHHPWAFGDAGCRGYYFLRDACTYATALNVASLSVERYLAICHPFKAKTLMSRSRTKKFISAIWLASALLAIPMLFTMGLQNRSGDGTHPGGLVCTPIVDTATVKVVIQVNTFMSFLFPMLVISILNTVIANKLTVMVHQAAEQGRVCTVGTHNGLEHSTFNMTIEPGRVQALRHGVLVLRAVVIAFVVCWLPYHVRRLMFCYISDEQWTTFLFDFYHYFYMLTNALFYVSSAINPILYNLVSANFRQVFLSTLACLCPGWRHRRKKRPTFSRKPNSMSSNHAFSTSATRETLY

One data set covers variants of B1. As to conditions: Rattus norvegicus; pH 7.4; Heat treatment; Activity; Tris-HCl 50 mM; structure 4BUO; whole UniProt chain shown.
On to MHLNSSVPQGTPGEPDAQPFSGPQSEMEATFLALSLSNGSGNTSESDTAGPNSDLDVNTDIYSKVLVTAIYLALFVVGTVGNSVTAFTLARKKSLQSLQSTVAYHLGSLALSDLLILLLAMPVELYNFIWVHHPWAFGDAGCRGYYFLRDACTYATALNVASLSVERYLAICHPFKAKTLMSRSRTKKFISAIWLASALLAIPMLFTMGLQNRSGDGTHPGGLVCTPIVDTATVKVVIQVNTFMSFLFPMLVISILNTVIANKLTVMVHQAAEQGRVCTVGTHNGLEHSTFNMTIEPGRVQALRHGVLVLRAVVIAFVVCWLPYHVRRLMFCYISDEQWTTFLFDFYHYFYMLTNALFYVSSAINPILYNLVSANFRQVFLSTLACLCPGWRHRRKKRPTFSRKPNSMSSNHAFSTSATRETLY [H103A], for which the Tm is 34 °C and 36 °C.

As for MHLNSSVPQGTPGEPDAQPFSGPQSEMEATFLALSLSNGSGNTSESDTAGPNSDLDVNTDIYSKVLVTAIYLALFVVGTVGNSVTLFTLARKKSLQSLQSTVHYHLGSLALSDLLILLLAMPVELYNFIWVHHPWAFGDAGCRGYYFLRDACTYATALNVASLSVERYLAICHPFKAKTLMSRSRTKKFISAIWLASALLAIPMLFTMGLQNRSGDGTHPGGLVCTPIVDTATVKVVIQVNTFMSFLFPMLVISILNTVAANKLTVMVHQAAEQGRVCTVGTHNGLEHSTFNMTIEPGRVQALRHGVLVLRAVVIAFVVCWLPYHVRRLMFCYISDEQWTTFLFDFYHYFYMLTNALAYVSSAINPILYNLVSANFRQVFLSTLACLCPGWRHRRKKRPTFSRKPNSMSSNHAFSTSATRETLY [F358A A86L I260A], the Tm is 49 °C.

As for MHLNSSVPQGTPGEPDAQPFSGPQSEMEATFLALSLSNGSGNTSESDTAGPNSDLDVNTDIYSKVLVTAIYLALFVVGTVGNSVTLFTLARKKSLQSLQSTVAYHLGSLALSDLLILLLAMPVELYNFIWVHHPWAFGDAGCRGYYFLRDACTYATALNVASLSVERYLAICHPFKAKTLMSRSRTKKFISAIWLASALLAIPMLFTMGLQNRSGDGTHPGGLVCTPIVDTATVKVVIQVNTFMSFLFPMLVISILNTVAANKLTVMVHQAAEQGRVCTVGTHNGLEHSTFNMTIEPGRVQALRHGVLVLRAVVIAFVVCWLPYHVRRLMFCYISDEQWTTFLFDFYHYFYMLTNALAYVSSAINPILYNLVSANFRQVFLSTLACLCPGWRHRRKKRPTFSRKPNSMSSNHAFSTSATRETLY [F358A A86L H103A I260A], the Tm amounted to 49 °C.

With MHLNSSVPQGTPGEPDAQPFSGPQSEMEATFLALSLSNGSGNTSESDTAGPNSDLDVNTDIYSKVLVTAIYLALFVVGTVGNSVTLFTLARKKSLQSLQSTVHYHLGSLALSDLLILLLAMPVELYNFIWVHHPWAFGDAGCRGYYFLRDACTYATALNVASLSVERYLAICHPFKAKTLMSRSRTKKFISAIWLASALLAIPMLFTMGLQNRSGDGTHPGGLVCTPIVDTATVKVVIQVNTFMSFLFPMLVISILNTVIANKLTVMVHQAAEQGRVCTVGTHNGLEHSTFNMTIEPGRVQALRHGVLVLRAVVIAFVVCWLPYHVRRLMFCYISDEQWTTFLFDFYHYFYMLTNALFYVSSAINPILYNLVSANFRQVFLSTLACLCPGWRHRRKKRPTFSRKPNSMSSNHAFSTSATRETLY [A86L], the Tm was 37 °C and 39 °C.

Consider MHLNSSVPQGTPGEPDAQPFSGPQSEMEATFLALSLSNGSGNTSESDTAGPNSDLDVNTDIYSKVLVTAIYLALFVVGTVGNSVTLFTLARKKSLQSLQSTVHYHLGSLALSDLLILLLAMPVELYNFIWVHHPWAFGDAGCRGYYFLRDACTYATALNVASLSVERYLAICHPFKAKTLMSRSRTKKFISAIWLASALLAIPMLFTMGLQNRSGDGTHPGGLVCTPIVDTATVKVVIQVNTFMSFLFPMLVISILNTVIANKLTVMVHQAAEQGRVCTVGTHNGLEHSTFNMTIEPGRVQALRHGVLVLRAVVIAFVVCWLPYHVRRLMFCYISDEQWTTFLFDFYHYFYMLTNALAYVSSAINPILYNLVSANFRQVFLSTLACLCPGWRHRRKKRPTFSRKPNSMSSNHAFSTSATRETLY [A86L F358A], for which the Tm is 48 °C.

The data set is the same for the next values; noted with them: Rattus norvegicus; pH 7.4; Thermal; Activity; Tris-HCl 50 mM; structure 4BUO; whole UniProt chain shown.
As for MHLNSSVPQGTPGEPDAQPFSGPQSEMEATFLALSLSNGSGNTSESDTAGPNSDLDVNTDIYSKVLVTAIYLALFVVGTVGNSVTLFTLARKKSLQSLQSTVHYHLGSLALSDLLILLLAMPVELYNFIWVHHPWAFGDAGCRGYYFLRDACTYATALNVASLSVERYLAICHPFKAKTLMSRSRTKKFISAIWLASALLAIPMLFTMGLQNRSGDGTHPGGLVCTPIVDTATVKVVIQVNTFMSFLFPMLVISILNTVIANKLTVMVHQAAEQGRVCTVGTHNGLEHSTFNMTIEPGRVQALRHGVLVLRAVVIAFVVCWLPYHVRRLMFCYISDEQWTTFLFDFYHYFYMLTNALFYVSSAINPILYNLVSANFRQVFLSTLACLCPGWRHRRKKRPTFSRKPNSMSSNHAFSTSATRETLY [A86L], the Tm stood at 33 °C and the “change of melting temperature, mutant - wild type (higher = more stable)” value stood at 8 °C.

Consider MHLNSSVPQGTPGEPDAQPFSGPQSEMEATFLALSLSNGSGNTSESDTAGPNSDLDVNTDIYSKVLVTAIYLALFVVGTVGNSVTLFTLARKKSLQSLQSTVHYHLGSLALSDLLILLLAMPVELYNFIWVHHPWAFGDAGCRGYYFLRDACTYATALNVASLSVERYLAICHPFKAKTLMSRSRTKKFISAIWLASALLAIPMLFTMGLQNRSGDGTHPGGLVCTPIVDTATVKVVIQVNTFMSFLFPMLVISILNTVIANKLTVMVHQAAEQGRVCTVGTHNGLEHSTFNMTIEPGRVQALRHGVLVLRAVVIAFVVCWLPYHVRRLMFCYISDEQWTTFLFDFYHYFYMLTNALAYVSSAINPILYNLVSANFRQVFLSTLACLCPGWRHRRKKRPTFSRKPNSMSSNHAFSTSATRETLY [A86L F358A], for which the “change of melting temperature, mutant - wild type (higher = more stable)” value was 11 °C and 10 °C.
